Assay results: the supplement of paper PMC9876800

Tested on: peptide library, one residue held at a place counted from the S/T acceptor
Test: relative phosphorylation of the sub-library (ratio to the mean residue at this position); higher = residue favoured
Details: human
In short: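 Spots on streptavidin membranes were phosphorimaged and quantified by densitometry to measure phosphorylation of biotinylated degenerate peptide sub-libraries by purified recombinant kinases, human or orthologue constructs. The reactions ran in 384-well plates for 90 min under kinase-specific conditions, with peptides at 50 μM and 50 μM ATP spiked with γ-32P-ATP. Relative sub-library phosphorylation is the ratio to the mean residue at that position.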

CAMK1D, construct: Full length, sequence (Q8IU85 whole entry, looked up): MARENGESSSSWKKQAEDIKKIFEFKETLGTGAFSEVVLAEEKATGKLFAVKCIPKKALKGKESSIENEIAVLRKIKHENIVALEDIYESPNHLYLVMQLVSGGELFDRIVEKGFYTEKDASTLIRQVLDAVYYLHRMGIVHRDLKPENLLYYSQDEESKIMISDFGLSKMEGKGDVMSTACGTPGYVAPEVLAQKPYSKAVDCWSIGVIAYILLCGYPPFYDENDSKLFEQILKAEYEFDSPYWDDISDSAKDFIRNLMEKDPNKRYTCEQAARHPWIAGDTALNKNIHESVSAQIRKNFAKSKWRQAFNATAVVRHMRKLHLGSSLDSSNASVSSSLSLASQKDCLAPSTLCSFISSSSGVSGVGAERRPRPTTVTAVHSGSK

CAMK1D, construct: Full length (from UniProt Q8IU85)
relative phosphorylation
Details | at +1 | at +2 | at +3 | at +4 | at -1 | at -2 | at -3 | at -4 | at -5
A fixed | 0.771 | 0.831 | 0.729 | 0.681 | 0.791 | 0.914 | 0.52 | 0.782 | 0.533
D fixed | 0.658 | 1.06 | 1.35 | 0.996 | 0.975 | 0.373 | 0.154 | 0.438 | 0.269
E fixed | 0.811 | 1.22 | 1.15 | 0.974 | 0.646 | 0.504 | 0.22 | 0.784 | 0.252
F fixed | 1.75 | 1.14 | 1.17 | 1.39 | 0.597 | 0.446 | 0.631 | 0.724 | 1.38
G fixed | 0.761 | 0.625 | 0.956 | 0.822 | 0.793 | 0.772 | 0.287 | 0.698 | 0.564
H fixed | 1.03 | 1.47 | 1.34 | 0.936 | 1.35 | 0.962 | 0.964 | 0.955 | 0.787
I fixed | 0.665 | 0.881 | 0.722 | 1.35 | 0.475 | 0.37 | 0.132 | 0.815 | 1.31
K fixed | 1.26 | 0.591 | 0.717 | 0.675 | 1.9 | 1.95 | 2.7 | 2.58 | 0.999
L fixed | 0.744 | 1.06 | 0.892 | 1.39 | 0.759 | 0.526 | 0.164 | 0.886 | 2.33
M fixed | 1.01 | 0.846 | 0.854 | 1.51 | 0.824 | 1.09 | 0.238 | 0.995 | 1.35
N fixed | 1.29 | 1.3 | 1.44 | 1.01 | 1.85 | 0.965 | 0.414 | 0.923 | 0.594
P fixed | 0.237 | 0.753 | 0.786 | 1.12 | 1.41 | 0.311 | 0.389 | 0.63 | 1.19
Q fixed | 1.68 | 1.14 | 1.07 | 0.969 | 1.28 | 2.08 | 0.63 | 1.06 | 0.905
R fixed | 1.62 | 0.7 | 0.785 | 0.616 | 1.5 | 3.51 | 8.75 | 2.35 | 1.85
V fixed | 0.747 | 0.736 | 0.627 | 0.746 | 0.523 | 0.448 | 0.153 | 0.883 | 0.752
W fixed | 0.971 | 1.3 | 1.34 | 0.973 | 0.486 | 1.13 | 0.395 | 0.706 | 0.977
Y fixed | 0.988 | 1.35 | 1.07 | 0.833 | 0.834 | 0.656 | 0.263 | 0.789 | 0.961
pThr fixed | 0.967 | 0.874 | 0.756 | 1.2 | 0.312 | 0.312 | 0.221 | 0.486 | 0.375
pTyr fixed | 0.844 | 2.75 | 1.25 | 0.949 | 0.739 | 0.291 | 0.205 | 0.431 | 0.739
